Here are results for six molecules from patent US20110250211A1 (INSTITUT PASTEUR, published 2011).

In experiment [1] the target is T1, human glial fibrillary acidic protein (GFAP) (human, UniProt P14136 1-432).
T1 construct: the endogenous protein in fixed human brain sections in the immunolabelling experiments; also called hGFAP
As to the kind of experiment: immunohistochemistry on human brain paraffin sections. How it is done:
Immunostaining of human brain tissue was performed on 5 μm thick paraffin sections. Sections were de-paraffinized in xylene, rehydrated through ethanol (100%, 96%, and 90%) and finally brought to water. They were incubated with 3% hydrogen peroxyde and 20% methanol, to quench for endogenous peroxydases, and washed in water. Non-specific binding was blocked by incubating the sections for 10 minutes in 2% bovine serum albumin in TBS plus 0.5% Tween.
The distribution of VHH-specific immunoreactivity in mouse and human brains sections were examined after aldehyde fixation and membranes permeabilization, using standard procedure for immunostaining. Immunohistochemistry experiments were performed with VHH-A10 (SEQ ID NO: 5) or VHH domain of SEQ ID NO: 3 fused in frame with the Ig CH2 domain and the His tag (SEQ ID NO: 29) were both used. With this construction, the signal could be amplified by using rabbit anti-alpaca Ig polyclonal antibodies as secondary antibodies, in turn labelled by an anti-rabbit goat polyclonal antibody. As previously reported (LAFAYE et al, 1995, above-cited), the results obtained were similar with the His-tagged antibody.

For experiment [2], the target named is T2, murine glial fibrillary acidic protein (GFAP) (mouse, UniProt P03995 1-430).
T2 construct: Endogenous protein of brain extracts, brain sections or live brain; also called GFAP in murine brain extracts; GFAP in mouse astrocytes
T2 sequence (P03995 whole entry): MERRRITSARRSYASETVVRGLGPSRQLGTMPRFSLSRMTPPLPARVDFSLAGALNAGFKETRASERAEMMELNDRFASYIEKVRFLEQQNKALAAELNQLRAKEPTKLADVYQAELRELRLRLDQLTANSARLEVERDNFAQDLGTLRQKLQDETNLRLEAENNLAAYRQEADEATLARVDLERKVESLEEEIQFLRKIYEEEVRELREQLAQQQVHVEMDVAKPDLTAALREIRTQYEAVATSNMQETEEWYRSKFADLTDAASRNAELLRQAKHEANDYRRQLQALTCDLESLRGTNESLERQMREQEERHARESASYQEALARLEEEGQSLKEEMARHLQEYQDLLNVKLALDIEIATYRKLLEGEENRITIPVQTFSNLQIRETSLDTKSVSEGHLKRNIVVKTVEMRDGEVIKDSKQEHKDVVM
Briefly: immunohistochemistry on fixed, permeabilized brain sections.

Experiment [3] has as its target T2, murine glial fibrillary acidic protein …. Briefly: Western blot of murine brain extracts. How it is done:
Murine brain extracts were electrophoresed, immunoblotted and incubated with the VHH domains VHH-A10, -B8, -E3 and -E9.
Murine brain proteins (300 mg) were extracted in a potter with 600 μl of NuPage LDS sample buffer (Invitrogen) and kept for […] at 70° C. An aliquot was diluted 1:10 (v/v) with the same sample buffer then treated at 70° C. for 10 min. Following separation by polyacrylamide gel electrophoresis (PAGE) using NuPAGE Novex 4-12% Bis-tris gel (Invitrogen), semi-dry transfer onto Hybond-C (Amersham) and western blotting were carried out using the Xcell II blot module (Invitrogen). Prior to the immunochemical reaction, membranes were blocked in a 4% skimmed milk solution. […] Finally, peroxidase activity was visualized using a chemiluminescent kit (Amersham).
(A western blot detects proteins with antibodies after separation by electrophoresis.)

For experiment [4], the target named is T1, human glial fibrillary acidic protein …. Briefly: equilibrium competition ELISA in solution (Friguet et al.). The protocol:
(§1) The binding affinity of VHHs was determined as described by FRIGUET et al. (1985, J Immunol Methods, 77:305-319). Briefly, various concentrations of GFAP were incubated in solution overnight at 4° C. with a known quantity of VHH until equilibrium was reached. The VHH concentration had been determined by preliminary ELISA calibrations. 100 μl of solution was transferred to a well of a microtiter plate previously coated with GFAP and was incubated for 20 min at 4° C. The plates were washed with PBS-Tween 0.1%. VHHs were detected with rabbit anti-His tag antibodies (eBiosciences, San Diego, Calif.) followed by adding β-galactosidase-conjugated goat anti-rabbit Igs (Biosys, Compiegne, France) and 4-methylumbelliferyl β-D galactoside (Sigma Aldrich, Saint-Quentin Fallavier, France). Fluorescence was read at 460 nm, after excitation at 355 nm. KD was estimated from the slope of the regression curve obtained by plotting the reciprocal of the fraction of bound antibody versus the reciprocal of the molar concentration of antigen.
(In general: In an ELISA, binding on a coated surface is turned into a signal by an enzyme label.)

The target is the same in experiment [5]. As to the kind of experiment: equilibrium competition ELISA in solution (Friguet et al.), GFAP-coated plate. The protocol: as §1
Experiment [6] has the same target. Briefly: competition ELISA (Friguet) after heating 15 min at 75 C and cooling 20 min at 4 C. How it is done: as §1
The heat denaturation of VHH-E9 was adapted to the method described in OLICHON et al. (2007, BMC Biotechnol., 7:7). VHHs are re-suspended in PBS/NaCl 300 mM and are heated for 15 minutes at 75° C. then cooled down at 4° C. for 20 minutes. The binding affinity of VHHs was determined by ELISA as described in Example 1 above.

Experiment [7] shares this target. Briefly: competition ELISA (Friguet) as in Example 1. The protocol: as §1

T1 sequence (P14136 whole entry): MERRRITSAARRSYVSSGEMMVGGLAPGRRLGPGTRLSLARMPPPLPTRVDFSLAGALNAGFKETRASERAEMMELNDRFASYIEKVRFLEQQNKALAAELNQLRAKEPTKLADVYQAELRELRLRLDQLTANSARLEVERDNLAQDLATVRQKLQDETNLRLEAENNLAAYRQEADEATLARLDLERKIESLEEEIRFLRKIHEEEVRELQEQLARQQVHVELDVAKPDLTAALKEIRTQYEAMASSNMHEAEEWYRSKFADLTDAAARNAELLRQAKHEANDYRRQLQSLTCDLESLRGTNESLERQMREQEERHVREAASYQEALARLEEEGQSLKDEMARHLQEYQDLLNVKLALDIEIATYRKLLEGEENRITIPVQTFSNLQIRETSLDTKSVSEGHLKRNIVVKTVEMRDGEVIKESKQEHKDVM

B1: VHH domain of SEQ ID NO: 3 fused in frame with the Ig CH2 domain and the His tag (VHH)
chain: DVQLRASGGGLVQPGGSLRLSCAASGFTFSNYAMYWLRQAPGKGIEWVSRIGPGGSHTEYADSVKGRFTISRDNAKNTLSLQMNSLKPEDTAVYYCAITQQGSGRGQETQVTVSSAAAAPELLGGPSVFIFPPKPKDVLSISGRPEVTCVVVDVGQEDPEVSFNWYIDGAEVRTANTRPKEEQFNSTYRVVSVLPIQHQDWLTGKEFKCKVNNKALPAPIEKTISKAKLEHHHHHH
notes: the sentence could be read otherwise; also called VHH-A10 fused with the CH2 domain
B1: the binding result in experiment [1] and in experiment [2] was “binds” each time.

B2: VHH-B8 (VHH)
VHH: DVQLQVSGGGSVQPGGSLRLSCAAPGFTFSNYAMYWLRQAPGKGIEWVSRIGPGGSHTEYADSVKGRFAISRDNAKNTLSLQMNSLKPEDTAAYYCAITQQGSGRGRGTQVTVSSAAASLSTELEFGSELIPISMADVQLQVSGGGSVQPGGSLRLSCAASGFTFSNYAMYWLRQAPGKGIEWVSRIGPGGSHTEYADSVKGRFTISRDNAKNTLSLQMNSLKPEDTAVYYCAITQQGSGRGRGTQVTVSSAAALEHHHHHH
notes: One polypeptide entry
One may read the Kd as a measure of binding affinity in units of concentration. A low value points to a tighter complex. For B2, the binding result in experiment [3] is listed as “binds”. Besides, the Kd in experiment [4] is 5.2 nM.

B3: VHH-E9 (VHH)
VHH: DVQLQVSGGGSVQPGGSLRLSCAASGFTFSNYAMYWLRQAPGKGIEWVSRIGPGGSHTEYADSVKGRFTISRDNAKNTLSLQMNSLKPEDTAVYYCAITQQGSGRGQGTQVTVSS
notes: Alpaca VHH with C-terminal His tag; also called anti-GFAP VHH-E9; native VHH-E9
Regarding B3, in experiment [3], the binding result was “binds”. The dissociation constant (Kd) in experiment [5] is 5.6 nM; in experiment [6], 3.8 nM.

B4: VHH-E3 (VHH)
VHH: DVQLQVSGGGSVQPGGSLRLSCAAPGFTFSNYAMYWLRQAPGKGIEWVSRIGPGGSHTEYADSVKGRFAISRDNAKNTLSLQMNSLKPEDTAAYYCAITQQGSGRGRGTQVTVSS
notes: Alpaca VHH with C-terminal His tag; also called anti-GFAP VHH-E3
For B4, the binding result in experiment [3] is given as “binds”.

B5: VHH-A10 (VHH)
VHH: DVQLRASGGGLVQPGGSLRLSCAASGFTFSNYAMYWLRQAPGKGIEWVSRIGPGGSHTEYADSVKGRFTISRDNAKNTLSLQMNSLKPEDTAVYYCAITQQGSGRGQETQVTVSSAAALEHHHHHH
notes: Alpaca VHH with C-terminal His tag, expressed in the E. coli periplasm from pET22; also called anti-GFAP VHH-A10; VHH-His
In the case of B5, in experiment [3], the binding result was “binds”. The dissociation constant (Kd) in experiment [5] amounted to 3.1 nM.

B6: VHH-E9 SS-free (VHH)
VHH: DVQLQVSGGGSVQPGGSLRLSSAASGFTFSNYAMYWLRQAPGKGIEWVSRIGPGGSHTEYADSVKGRFTISRDNAKNTLSLQMNSLKPEDTAVYYSAITQQGSGRGQGTQVTVSSAAALEHHHHHH
notes: also called cysteine-free derivative of VHH E9
For the molecule B6, in experiment [7], binding was put at a Kd of 12 nM and the “fold reduction of affinity against native VHH-E9” value was 2 fold.
